The values that follow come from article PMC4839733.

This assay deals with SP-VSVG-hGLP-1RΔN23-GFP V36A (human) (UniProt P43220).
Chain of UniProt P43220 (P43220 24-463 V36A): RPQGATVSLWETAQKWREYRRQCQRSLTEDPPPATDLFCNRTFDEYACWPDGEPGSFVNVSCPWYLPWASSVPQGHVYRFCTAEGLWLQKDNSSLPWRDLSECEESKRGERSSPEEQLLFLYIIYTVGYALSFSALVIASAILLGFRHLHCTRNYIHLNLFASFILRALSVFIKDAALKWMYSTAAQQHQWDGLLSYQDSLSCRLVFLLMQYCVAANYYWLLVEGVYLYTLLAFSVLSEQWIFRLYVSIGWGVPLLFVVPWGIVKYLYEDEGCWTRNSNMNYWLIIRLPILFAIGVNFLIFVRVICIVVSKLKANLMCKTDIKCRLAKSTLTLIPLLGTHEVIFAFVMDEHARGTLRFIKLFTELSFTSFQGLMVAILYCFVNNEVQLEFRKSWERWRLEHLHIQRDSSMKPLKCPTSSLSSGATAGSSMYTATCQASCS

Consider GLP-1 7–37 (liraglutide) (peptide), for which the agonist induced internalisation of hGLP-1R V36A (cell-surface ELISA with the anti-GLP-1R antibody, HEK293 cells) is 12.4%.
